Experimental data taken from patent publication US20190322728A1 (PROTHENA BIOSCIENCES, published 2019).

T1: tau peptide, residues 25-44 of SEQ ID NO: 1 (human)
T1 construct: Proteolytic fragment (LysC and trypsin digests) of rTau, precipitated by 16B5 and identified by MALDI-TOF/TOF
T1 peptide: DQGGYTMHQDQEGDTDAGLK

T2: tau peptide, residues 24-44 of SEQ ID NO: 1 (human)
T2 construct: Tryptic fragment of rTau, precipitated by 16B5 and identified by MALDI-TOF/TOF
T2 peptide: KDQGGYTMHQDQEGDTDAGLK


Tests used:
[1] = molecular target: recombinant purified hTau-P301L (human) (UniProt P10636); assay: SPR (Biacore T200), antibody held by a capture antibody on a CM5 chip, hTau-P301L as analyte
recombinant purified hTau-P301L (human), sequence (P10636 other isoform, or with tags, fused parts or gaps P301L P301L): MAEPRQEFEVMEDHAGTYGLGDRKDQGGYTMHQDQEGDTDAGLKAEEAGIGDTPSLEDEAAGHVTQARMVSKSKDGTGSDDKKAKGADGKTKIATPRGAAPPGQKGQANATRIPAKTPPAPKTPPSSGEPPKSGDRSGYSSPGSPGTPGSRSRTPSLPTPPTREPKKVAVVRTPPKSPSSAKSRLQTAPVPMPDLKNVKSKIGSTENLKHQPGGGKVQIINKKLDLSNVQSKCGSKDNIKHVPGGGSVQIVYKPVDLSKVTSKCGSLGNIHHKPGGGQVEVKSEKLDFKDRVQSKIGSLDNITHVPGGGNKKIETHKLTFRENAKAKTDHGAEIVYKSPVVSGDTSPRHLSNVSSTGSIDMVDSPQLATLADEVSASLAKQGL

[2] = molecular target: T3, tau deletion mutant Δ25-44 (printed A25-44) (human, UniProt P10636 1-758); assay: Western blot of bacterial lysate
T3 construct: Deletion mutant of rTau, tested in clarified bacterial lysate; The limits of the pieces are derived from the printed deletion
T3 sequence (P10636 other isoform, or with tags, fused parts or gaps mutant): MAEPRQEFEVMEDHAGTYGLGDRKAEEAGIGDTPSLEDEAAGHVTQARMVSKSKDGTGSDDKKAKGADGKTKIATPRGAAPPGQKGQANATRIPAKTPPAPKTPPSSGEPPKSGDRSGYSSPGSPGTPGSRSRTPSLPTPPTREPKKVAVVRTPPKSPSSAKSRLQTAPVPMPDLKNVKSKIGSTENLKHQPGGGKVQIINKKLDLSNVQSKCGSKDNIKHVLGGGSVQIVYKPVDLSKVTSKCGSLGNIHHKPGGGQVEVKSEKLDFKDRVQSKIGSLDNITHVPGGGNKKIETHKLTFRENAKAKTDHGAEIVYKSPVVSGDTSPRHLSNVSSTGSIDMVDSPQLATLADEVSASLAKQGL

[3] = molecular target: T4, tau deletion mutant Δ30-39 (printed A30-39) (human, UniProt P10636 1-758); assay: Western blot of bacterial lysate
T4 construct: Deletion mutant of rTau, tested in clarified bacterial lysate; The limits of the pieces are derived from the printed deletion
T4 sequence (P10636 other isoform, or with tags, fused parts or gaps mutant): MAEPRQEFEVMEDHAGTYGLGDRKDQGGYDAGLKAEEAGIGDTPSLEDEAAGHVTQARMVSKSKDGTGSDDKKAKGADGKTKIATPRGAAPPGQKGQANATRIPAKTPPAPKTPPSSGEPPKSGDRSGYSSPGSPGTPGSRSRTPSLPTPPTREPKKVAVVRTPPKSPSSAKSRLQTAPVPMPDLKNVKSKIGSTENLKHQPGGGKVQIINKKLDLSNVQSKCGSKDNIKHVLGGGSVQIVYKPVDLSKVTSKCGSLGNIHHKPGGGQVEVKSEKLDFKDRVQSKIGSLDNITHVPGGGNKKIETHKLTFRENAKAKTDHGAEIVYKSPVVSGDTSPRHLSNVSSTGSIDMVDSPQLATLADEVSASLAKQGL

[4] = molecular target: T5, tau deletion mutant Δ23-32 (printed A23-32) (human, UniProt P10636 1-758); assay: Western blot of bacterial lysate, antibody at 0.2 µg/mL
T5 construct: Deletion mutant of rTau, tested in clarified bacterial lysate; The limits of the pieces are derived from the printed deletion
T5 sequence (P10636 other isoform, or with tags, fused parts or gaps mutant): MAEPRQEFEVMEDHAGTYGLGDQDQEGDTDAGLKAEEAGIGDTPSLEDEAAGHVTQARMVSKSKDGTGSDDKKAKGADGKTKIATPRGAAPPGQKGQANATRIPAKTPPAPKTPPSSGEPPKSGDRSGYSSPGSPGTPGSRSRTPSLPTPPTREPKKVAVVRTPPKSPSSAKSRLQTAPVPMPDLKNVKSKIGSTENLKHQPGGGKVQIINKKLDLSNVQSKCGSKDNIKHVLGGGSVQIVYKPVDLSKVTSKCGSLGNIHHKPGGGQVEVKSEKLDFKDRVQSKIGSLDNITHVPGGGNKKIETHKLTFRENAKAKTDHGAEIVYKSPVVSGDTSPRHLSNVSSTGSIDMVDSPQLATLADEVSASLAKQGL

[5] = molecular target: T6, rTau: human tau with 4 microtubule binding repeats and no N-terminal inserts, containing a P301L mutation (human, UniProt P10636 2-758); assay: Western blot of bacterial lysate, 16B5 at 0.2 ug/mL
T6 construct: Expressed in E. coli and purified; It is the parent of the deletion mutants; also called full-length Tau; wild-type Tau (WT) of the blots
T6 sequence (P10636 other isoform, or with tags, fused parts or gaps P301L P301L limits assumed): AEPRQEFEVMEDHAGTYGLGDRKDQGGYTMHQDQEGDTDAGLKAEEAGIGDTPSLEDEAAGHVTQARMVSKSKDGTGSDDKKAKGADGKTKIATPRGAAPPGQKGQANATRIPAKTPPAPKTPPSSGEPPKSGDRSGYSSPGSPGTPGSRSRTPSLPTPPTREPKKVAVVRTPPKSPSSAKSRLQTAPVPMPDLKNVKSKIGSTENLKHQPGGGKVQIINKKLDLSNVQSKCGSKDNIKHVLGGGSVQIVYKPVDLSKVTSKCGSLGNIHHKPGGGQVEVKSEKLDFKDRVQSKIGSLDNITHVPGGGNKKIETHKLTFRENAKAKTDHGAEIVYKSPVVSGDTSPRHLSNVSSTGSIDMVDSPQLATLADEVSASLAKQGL

[6] = molecular target: T7, tau deletion mutant Δ5-24 (printed A5-24) (human, UniProt P10636-6 1-383); assay: as above
T7 construct: Deletion mutant of rTau, tested in clarified bacterial lysate; The limits of the pieces are derived from the printed deletion
T7 sequence (P10636 other isoform, or with tags, fused parts or gaps mutant): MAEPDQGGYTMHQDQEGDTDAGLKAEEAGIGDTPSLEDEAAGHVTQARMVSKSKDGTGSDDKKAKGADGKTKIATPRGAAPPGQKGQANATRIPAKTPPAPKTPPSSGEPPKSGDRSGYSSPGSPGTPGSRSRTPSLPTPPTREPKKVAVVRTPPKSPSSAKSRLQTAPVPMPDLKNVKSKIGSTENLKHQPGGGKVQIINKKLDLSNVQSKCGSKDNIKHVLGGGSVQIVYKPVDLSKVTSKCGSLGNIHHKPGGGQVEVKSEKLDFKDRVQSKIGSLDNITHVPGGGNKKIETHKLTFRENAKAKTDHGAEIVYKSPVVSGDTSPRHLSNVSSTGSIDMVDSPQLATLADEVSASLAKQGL

[7] = molecular target: T1, tau peptide, residues 25-44 of SEQ ID …; assay: precipitation of protease fragments of rTau with 16B5, HPLC, MALDI-TOF/TOF
[8] = molecular target: T2, tau peptide, residues 24-44 of SEQ ID …; assay: as above

Binder	Kd [1]	koff [1]	kon [1]	also measured
humanized 16B5, version H1L2 (antibody, V domains shown) VH: QVQLVQSGSELKKPGASVKVSCKASGYPFTYHGMDWVRQAPGQGLEWMGWINTYSGVPTYADDFKGRFVFSLDTSVSTAYLQISSLKAEDTAVYFCARRRDFTMDFWGQGTTVTVSS VL: NIVLTQSPDSLAVSLGERATINCKSSQSLLNSRTRKNYLAWFQQKPGQSPKLLIYWASTRESGVPDRFSGSGSGTDFTLTISSLQAEDVAVYYCKQSYTLRTFGGGTKVEIKR	2.94 pM	0.000131 s⁻¹	4.47e+07 M⁻¹ s⁻¹	–
humanized 16B5, version H2L2 (antibody, V domains shown) VH: EVQLVQSGSELKKPGASVKVSCKASGYPFTYHGMDWVRQAPGQGLEWMGWINTYSGVPTYADDFKGRFVFSLDTSVSTAYLQISSLKAEDTAVYFCARRRDFTMDFWGQGTTVTVSS VL: NIVLTQSPDSLAVSLGERATINCKSSQSLLNSRTRKNYLAWFQQKPGQSPKLLIYWASTRESGVPDRFSGSGSGTDFTLTISSLQAEDVAVYYCKQSYTLRTFGGGTKVEIKR	2.86 pM	0.000138 s⁻¹	4.85e+07 M⁻¹ s⁻¹	–
humanized 16B5, version H1L4 (antibody, V domains shown) VH: QVQLVQSGSELKKPGASVKVSCKASGYPFTYHGMDWVRQAPGQGLEWMGWINTYSGVPTYADDFKGRFVFSLDTSVSTAYLQISSLKAEDTAVYFCARRRDFTMDFWGQGTTVTVSS VL: NIVLTQSPSSLAVSLGERATINCKSSQSLLNSRTRKNYLAWFQQKPGQSPKLLIYWASTRESGVPDRFSGSGSGTDFTLTISSLQAEDVAVYYCKQSYTLRTFGGGTKVEIKR	3.15 pM	0.000137 s⁻¹	4.36e+07 M⁻¹ s⁻¹	–
humanized 16B5, version H1L1 (antibody, V domains shown) VH: QVQLVQSGSELKKPGASVKVSCKASGYPFTYHGMDWVRQAPGQGLEWMGWINTYSGVPTYADDFKGRFVFSLDTSVSTAYLQISSLKAEDTAVYFCARRRDFTMDFWGQGTTVTVSS VL: NIVLTQSPDSLAVSLGERATINCKSSQSLLNSRTRKNYLAWFQQKPGQPPKLLIYWASTRESGVPDRFSGSGSGTDFTLTISSLQAEDVAVYYCKQSYTLRTFGGGTKVEIKR	–	–	–	dissociation constant relative to the chimeric antibody (fold of chimeric 16B5) [1]: 0.33
humanized 16B5, version H2L4 (antibody, V domains shown) VH: EVQLVQSGSELKKPGASVKVSCKASGYPFTYHGMDWVRQAPGQGLEWMGWINTYSGVPTYADDFKGRFVFSLDTSVSTAYLQISSLKAEDTAVYFCARRRDFTMDFWGQGTTVTVSS VL: NIVLTQSPSSLAVSLGERATINCKSSQSLLNSRTRKNYLAWFQQKPGQSPKLLIYWASTRESGVPDRFSGSGSGTDFTLTISSLQAEDVAVYYCKQSYTLRTFGGGTKVEIKR	3.95 pM	0.000171 s⁻¹	4.34e+07 M⁻¹ s⁻¹	–
16B5 monoclonal antibody (mouse) (antibody, V domains shown, Mouse monoclonal antibody; The control 6F10 is called an IgG1 isotype control; also called Murine 16B5; pan antibody 16B5) VH: QIQLVQSGPELKKPGETVKISCKASGYPFTYHGMDWVKQAPWGGLEWMGWINTYSGVPTYADDFKGRFAFSLETSVGTAYLQINNLKNEDTATYFCARRRDFTMDFWGQGTSVTVSS VL: NIVLSQSPSSLAVSPGEKVTMSCKSSQSLLNSRTRKNYLAWFQQKPGQSPKLLIYWASTRESGVPDRFTGSGSGTDFTLTISSVQAEDLAVYYCKQSYTLRTFGGGTNLEIKR	2.32 pM	–	–	binding result [2]: no binding (tested: 0.2 µg/mL antibody); binding result [3]: no binding (tested: 0.2 µg/mL antibody); binding result [4]: binds; binding result [5]: binds; binding result [6]: binds; binding result [7]: binds; binding result [8]: binds
